Laboratory results published in patent US20220177594A1.

Experiments:
[1] = target: Feline_OSMR_hlgG1_Fc (feline); experiment: SPR Biacore
[2] = target: Feline_OSMR_hlgG1_Fc (feline); experiment: indirect ELISA, fOSMR coated; OD ratio to antibody expression control

Sequence of Feline_OSMR_hlgG1_Fc (feline) (chain, as listed by the source limits assumed, form in doubt): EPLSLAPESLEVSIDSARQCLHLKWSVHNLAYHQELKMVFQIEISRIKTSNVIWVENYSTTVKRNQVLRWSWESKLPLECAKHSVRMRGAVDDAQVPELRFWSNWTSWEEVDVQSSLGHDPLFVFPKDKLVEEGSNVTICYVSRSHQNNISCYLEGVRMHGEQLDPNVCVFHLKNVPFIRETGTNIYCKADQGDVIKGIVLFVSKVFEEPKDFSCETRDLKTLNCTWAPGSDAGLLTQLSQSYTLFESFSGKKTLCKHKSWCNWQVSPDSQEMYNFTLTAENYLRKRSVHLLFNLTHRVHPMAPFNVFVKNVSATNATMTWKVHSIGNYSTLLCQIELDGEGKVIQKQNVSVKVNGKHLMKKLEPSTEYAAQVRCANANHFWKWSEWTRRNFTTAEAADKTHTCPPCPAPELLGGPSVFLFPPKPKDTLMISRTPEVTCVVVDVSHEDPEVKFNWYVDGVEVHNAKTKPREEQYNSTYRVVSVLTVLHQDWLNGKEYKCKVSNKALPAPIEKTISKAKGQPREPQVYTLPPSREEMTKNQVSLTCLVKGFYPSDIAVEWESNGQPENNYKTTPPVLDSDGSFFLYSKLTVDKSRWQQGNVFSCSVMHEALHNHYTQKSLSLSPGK

Row | Binder | Kd [1] | koff [1] | kon [1] | ELISA ratio [2]
1 | Mu_02D09_VH (SEQ ID NO: 31)_Y50A (antibody, V domains shown) VH: EVQLVESGGGLVKPGGSLTLSCAASGFTFSDYGMHWLRQAPEKGLEWVAAISSGSRAVFFADTVKGRFTISRDNAKNTLFLQMTSLRSDDTAMYYCARDRYDGRGFAYWGQGTLVTVSA VL: DIVLTQSPATLSVTPGDSVSLSCRASQSISNNLHWYQQTSHESPRLLITYASQSISGIPSRFSGSGSGTDFTLSINSVETEDFGMYFCQQSNSWPLTFGAGTKLELKR | 0.00119 nM | 1.2e-07 s⁻¹ | 100000 M⁻¹ s⁻¹ | 0.009 OD ratio
2 | Mu_02D09_VH (SEQ ID NO: 31)_S52A (antibody, V domains shown) VH: EVQLVESGGGLVKPGGSLTLSCAASGFTFSDYGMHWLRQAPEKGLEWVAYIASGSRAVFFADTVKGRFTISRDNAKNTLFLQMTSLRSDDTAMYYCARDRYDGRGFAYWGQGTLVTVSA VL: DIVLTQSPATLSVTPGDSVSLSCRASQSISNNLHWYQQTSHESPRLLITYASQSISGIPSRFSGSGSGTDFTLSINSVETEDFGMYFCQQSNSWPLTFGAGTKLELKR | 0.736 nM | 0.000483 s⁻¹ | 656000 M⁻¹ s⁻¹ | 0.001 OD ratio
3 | Mu_02D09_VH (SEQ ID NO: 31)_D99A (antibody, V domains shown) VH: EVQLVESGGGLVKPGGSLTLSCAASGFTFSDYGMHWLRQAPEKGLEWVAYISSGSRAVFFADTVKGRFTISRDNAKNTLFLQMTSLRSDDTAMYYCARARYDGRGFAYWGQGTLVTVSA VL: DIVLTQSPATLSVTPGDSVSLSCRASQSISNNLHWYQQTSHESPRLLITYASQSISGIPSRFSGSGSGTDFTLSINSVETEDFGMYFCQQSNSWPLTFGAGTKLELKR | 1.13 nM | 0.000463 s⁻¹ | 408000 M⁻¹ s⁻¹ | 0 OD ratio
4 | Mu_02D09_VH (SEQ ID NO: 31)_Y101A (antibody, V domains shown) VH: EVQLVESGGGLVKPGGSLTLSCAASGFTFSDYGMHWLRQAPEKGLEWVAYISSGSRAVFFADTVKGRFTISRDNAKNTLFLQMTSLRSDDTAMYYCARDRADGRGFAYWGQGTLVTVSA VL: DIVLTQSPATLSVTPGDSVSLSCRASQSISNNLHWYQQTSHESPRLLITYASQSISGIPSRFSGSGSGTDFTLSINSVETEDFGMYFCQQSNSWPLTFGAGTKLELKR | 11.5 nM | 0.00194 s⁻¹ | 169000 M⁻¹ s⁻¹ | 0.32 OD ratio
5 | Mu_02D09_VH (SEQ ID NO: 31)_R104A (antibody, V domains shown) VH: EVQLVESGGGLVKPGGSLTLSCAASGFTFSDYGMHWLRQAPEKGLEWVAYISSGSRAVFFADTVKGRFTISRDNAKNTLFLQMTSLRSDDTAMYYCARDRYDGAGFAYWGQGTLVTVSA VL: DIVLTQSPATLSVTPGDSVSLSCRASQSISNNLHWYQQTSHESPRLLITYASQSISGIPSRFSGSGSGTDFTLSINSVETEDFGMYFCQQSNSWPLTFGAGTKLELKR | 0.449 nM | 5.79e-05 s⁻¹ | 129000 M⁻¹ s⁻¹ | 0 OD ratio
6 | Mu_02D09_VL (SEQ ID NO: 33)_I29A (antibody, V domains shown) VH: EVQLVESGGGLVKPGGSLTLSCAASGFTFSDYGMHWLRQAPEKGLEWVAYISSGSRAVFFADTVKGRFTISRDNAKNTLFLQMTSLRSDDTAMYYCARDRYDGRGFAYWGQGTLVTVSA VL: DIVLTQSPATLSVTPGDSVSLSCRASQSASNNLHWYQQTSHESPRLLITYASQSISGIPSRFSGSGSGTDFTLSINSVETEDFGMYFCQQSNSWPLTFGAGTKLELKR | 7.26 nM | 0.00113 s⁻¹ | 155000 M⁻¹ s⁻¹ | 0.377 OD ratio
7 | Mu_09E09_VL (SEQ ID NO: 37)_Q90A (antibody, V domains shown) VH: DVKLVESGEGLVKPGGSLKLSCAASGFTFSSYAMSWVRQTPEKRLEWVAYISSGGDYIYYADTVKGRFTISRDNARNTLYLQMSSLKSEDTAMYYCTRDPITGTFAYWGQGTLVTVSA VL: DLQMTQTTSSLSASLGDRVTISCRASQDINNYLNWYQQKPDGTVKLLIYYTSTLHSGVPSRFSGSGSGTDYSLTISNLEQEDIATYFCQAGNTLPWTFGGGTKLEIKR | – | – | – | 0.183 OD ratio
8 | Mu_09E09_VL (SEQ ID NO: 37)_N92A (antibody, V domains shown) VH: DVKLVESGEGLVKPGGSLKLSCAASGFTFSSYAMSWVRQTPEKRLEWVAYISSGGDYIYYADTVKGRFTISRDNARNTLYLQMSSLKSEDTAMYYCTRDPITGTFAYWGQGTLVTVSA VL: DLQMTQTTSSLSASLGDRVTISCRASQDINNYLNWYQQKPDGTVKLLIYYTSTLHSGVPSRFSGSGSGTDYSLTISNLEQEDIATYFCQQGATLPWTFGGGTKLEIKR | – | – | – | 0.015 OD ratio
9 | Mu_09E09_VL (SEQ ID NO: 37)_W96A (antibody, V domains shown) VH: DVKLVESGEGLVKPGGSLKLSCAASGFTFSSYAMSWVRQTPEKRLEWVAYISSGGDYIYYADTVKGRFTISRDNARNTLYLQMSSLKSEDTAMYYCTRDPITGTFAYWGQGTLVTVSA VL: DLQMTQTTSSLSASLGDRVTISCRASQDINNYLNWYQQKPDGTVKLLIYYTSTLHSGVPSRFSGSGSGTDYSLTISNLEQEDIATYFCQQGNTLPATFGGGTKLEIKR | – | – | – | 0 OD ratio
10 | Mu_19F07_VH (SEQ ID NO: 47)_S56A (antibody, V domains shown) VH: EVKLVESEGGLVQPGSSMKLSCTASGFTFSDYYMAWVRQVPEKGLEWVANINYDGASTYYLDSLKSRFIISRDNAKNILYLQMSSLKSEDTATYYCARGLTWDFDVWGTGTTVTVSS VL: DIVMTQSHKFMSPSVGDRVSITCKASQDVDTAVAWYQQKPGQSPKLLIYLASTRHTGVPDRFTGSGSGTDFTLTISNVQSEDLADYFCQQYSRFPLTFGAGTKLELKR | – | – | – | 0.277 OD ratio

More lines, now with the values ahead:

Row | Kd [1] | koff [1] | kon [1] | ELISA ratio [2] | Binder
11 | 6.13 nM | 0.0014 s⁻¹ | 229000 M⁻¹ s⁻¹ | 0.158 OD ratio | Mu_02D09_VH (SEQ ID NO: 31)_G33A (antibody, V domains shown) VH: EVQLVESGGGLVKPGGSLTLSCAASGFTFSDYAMHWLRQAPEKGLEWVAYISSGSRAVFFADTVKGRFTISRDNAKNTLFLQMTSLRSDDTAMYYCARDRYDGRGFAYWGQGTLVTVSA VL: DIVLTQSPATLSVTPGDSVSLSCRASQSISNNLHWYQQTSHESPRLLITYASQSISGIPSRFSGSGSGTDFTLSINSVETEDFGMYFCQQSNSWPLTFGAGTKLELKR
12 | 8.05 nM | 0.00108 s⁻¹ | 134000 M⁻¹ s⁻¹ | 0.03 OD ratio | Mu_02D09_VH (SEQ ID NO: 31)_H35A (antibody, V domains shown) VH: EVQLVESGGGLVKPGGSLTLSCAASGFTFSDYGMAWLRQAPEKGLEWVAYISSGSRAVFFADTVKGRFTISRDNAKNTLFLQMTSLRSDDTAMYYCARDRYDGRGFAYWGQGTLVTVSA VL: DIVLTQSPATLSVTPGDSVSLSCRASQSISNNLHWYQQTSHESPRLLITYASQSISGIPSRFSGSGSGTDFTLSINSVETEDFGMYFCQQSNSWPLTFGAGTKLELKR
13 | 0.00211 nM | 2.31e-07 s⁻¹ | 109000 M⁻¹ s⁻¹ | 0.01 OD ratio | Mu_02D09_VH (SEQ ID NO: 31)_D62A (antibody, V domains shown) VH: EVQLVESGGGLVKPGGSLTLSCAASGFTFSDYGMHWLRQAPEKGLEWVAYISSGSRAVFFAATVKGRFTISRDNAKNTLFLQMTSLRSDDTAMYYCARDRYDGRGFAYWGQGTLVTVSA VL: DIVLTQSPATLSVTPGDSVSLSCRASQSISNNLHWYQQTSHESPRLLITYASQSISGIPSRFSGSGSGTDFTLSINSVETEDFGMYFCQQSNSWPLTFGAGTKLELKR
14 | 13.9 nM | 0.00174 s⁻¹ | 125000 M⁻¹ s⁻¹ | 0.058 OD ratio | Mu_02D09_VH (SEQ ID NO: 31)_D102A (antibody, V domains shown) VH: EVQLVESGGGLVKPGGSLTLSCAASGFTFSDYGMHWLRQAPEKGLEWVAYISSGSRAVFFADTVKGRFTISRDNAKNTLFLQMTSLRSDDTAMYYCARDRYAGRGFAYWGQGTLVTVSA VL: DIVLTQSPATLSVTPGDSVSLSCRASQSISNNLHWYQQTSHESPRLLITYASQSISGIPSRFSGSGSGTDFTLSINSVETEDFGMYFCQQSNSWPLTFGAGTKLELKR
15 | 0.000765 nM | 7.94e-08 s⁻¹ | 104000 M⁻¹ s⁻¹ | 0 OD ratio | Mu_02D09_VL (SEQ ID NO: 33)_W94A (antibody, V domains shown) VH: EVQLVESGGGLVKPGGSLTLSCAASGFTFSDYGMHWLRQAPEKGLEWVAYISSGSRAVFFADTVKGRFTISRDNAKNTLFLQMTSLRSDDTAMYYCARDRYDGRGFAYWGQGTLVTVSA VL: DIVLTQSPATLSVTPGDSVSLSCRASQSISNNLHWYQQTSHESPRLLITYASQSISGIPSRFSGSGSGTDFTLSINSVETEDFGMYFCQQSNSAPLTFGAGTKLELKR
16 | – | – | – | 0.011 OD ratio | Mu_09E09_VH (SEQ ID NO: 35)_Y59A (antibody, V domains shown) VH: DVKLVESGEGLVKPGGSLKLSCAASGFTFSSYAMSWVRQTPEKRLEWVAYISSGGDYIAYADTVKGRFTISRDNARNTLYLQMSSLKSEDTAMYYCTRDPITGTFAYWGQGTLVTVSA VL: DLQMTQTTSSLSASLGDRVTISCRASQDINNYLNWYQQKPDGTVKLLIYYTSTLHSGVPSRFSGSGSGTDYSLTISNLEQEDIATYFCQQGNTLPWTFGGGTKLEIKR
17 | – | – | – | 0 OD ratio | Mu_09E09_VH (SEQ ID NO: 35)_I101A (antibody, V domains shown) VH: DVKLVESGEGLVKPGGSLKLSCAASGFTFSSYAMSWVRQTPEKRLEWVAYISSGGDYIYYADTVKGRFTISRDNARNTLYLQMSSLKSEDTAMYYCTRDPATGTFAYWGQGTLVTVSA VL: DLQMTQTTSSLSASLGDRVTISCRASQDINNYLNWYQQKPDGTVKLLIYYTSTLHSGVPSRFSGSGSGTDYSLTISNLEQEDIATYFCQQGNTLPWTFGGGTKLEIKR
18 | – | – | – | 0 OD ratio | Mu_09E09_VL (SEQ ID NO: 37)_Y50A (antibody, V domains shown) VH: DVKLVESGEGLVKPGGSLKLSCAASGFTFSSYAMSWVRQTPEKRLEWVAYISSGGDYIYYADTVKGRFTISRDNARNTLYLQMSSLKSEDTAMYYCTRDPITGTFAYWGQGTLVTVSA VL: DLQMTQTTSSLSASLGDRVTISCRASQDINNYLNWYQQKPDGTVKLLIYATSTLHSGVPSRFSGSGSGTDYSLTISNLEQEDIATYFCQQGNTLPWTFGGGTKLEIKR
19 | – | – | – | 0.479 OD ratio | Mu_19F07_VH (SEQ ID NO: 47)_Y60A (antibody, V domains shown) VH: EVKLVESEGGLVQPGSSMKLSCTASGFTFSDYYMAWVRQVPEKGLEWVANINYDGSSTYALDSLKSRFIISRDNAKNILYLQMSSLKSEDTATYYCARGLTWDFDVWGTGTTVTVSS VL: DIVMTQSHKFMSPSVGDRVSITCKASQDVDTAVAWYQQKPGQSPKLLIYLASTRHTGVPDRFTGSGSGTDFTLTISNVQSEDLADYFCQQYSRFPLTFGAGTKLELKR
20 | – | – | – | 0.057 OD ratio | Mu_19F07_VH (SEQ ID NO: 47)_W102A (antibody, V domains shown) VH: EVKLVESEGGLVQPGSSMKLSCTASGFTFSDYYMAWVRQVPEKGLEWVANINYDGSSTYYLDSLKSRFIISRDNAKNILYLQMSSLKSEDTATYYCARGLTADFDVWGTGTTVTVSS VL: DIVMTQSHKFMSPSVGDRVSITCKASQDVDTAVAWYQQKPGQSPKLLIYLASTRHTGVPDRFTGSGSGTDFTLTISNVQSEDLADYFCQQYSRFPLTFGAGTKLELKR
